{"source": "patent US20260240907A1", "about": "(published 2026)", "binders": {"B1": {"name": "TCR6 (TCR, V domains shown)", "Valpha": "AQTVTQSQPEMSVQEAETVTLSCTYDTSESDYYLFWYKQPPSRQMILVIRQEAYKQQNATENRFSVNFQKAAKSFSLKISDSQLGDAAMYFCAYTNSGNTPLVFGKGTRLSVIA", "Vbeta": "DAGVIQSPRHEVTEMGQEVTLRCKPISGHDYLFWYRQTMMRGLELLIYFNNNVPIDDSGMPEDRFSAKMPNASFSTLKIQPSEPRDSAVYFCASKPGPRSWREGAFFGQGTRLTVV"}, "B2": {"name": "TCR3 (TCR, V domains shown)", "Valpha": "AQKITQTQPGMFVQEKEAVTLDCTYDTSDPSYGLFWYKQPSSGEMIFLIYQGSYDQQNATEGRYSLNFQKARKSANLVISASQLGDSAMYFCVGNEKLTFGTGTRLTIIP", "Vbeta": "KAGVTQTPRYLIKTRGQQVTLSCSPISGHRSVSWYQQTPGQGLQFLFEYFSETQRNKGNFPGRFSGRQFSNSRSEMNVSTLELGDSALYLCASSLATGGYNSPLHFGNGTRLTVT"}, "B3": {"name": "TCR2 (TCR, V domains shown)", "Valpha": "AQKVTQAQTEISVVEKEDVTLDCVYETRDTTYYLFWYKQPPSGELVFLIRRNSFDEQNEISGRYSWNFQKSTSSFNFTITASQVVDSAVYFCALSEGSNYKLTFGKGTLLTVNP", "Vbeta": "EAGVAQSPRYKIIEKRQSVAFWCNPISGHATLYWYQQILGQGPKLLIQFQNNGVVDDSQLPKDRFSAERLKGVDSTLKIQPAKLEDSAVYLCASSSTGGTGETQYFGPGTRLLVL"}, "B4": {"name": "TCR4 (TCR, V domains shown)", "Valpha": "GEDVEQSLFLSVREGDSSVINCTYTDSSSTYLYWYKQEPGAGLQLLTYIFSNMDMKQDQRLTVLLNKKDKHLSLRIADTQTGDSAIYFCAERRGNMLTFGGGTRLMVKP", "Vbeta": "NAGVTQTPKFRILKIGQSMTLQCTQDMNHNYMYWYRQDPGMGLKLIYYSVGAGITDKGEVPNGYNVSRSTTEDFPLRLELAAPSQTSVYFCASSRTSGLTDTQYFGPGTRLTVL"}, "B5": {"name": "TCR5 (TCR, V domains shown)", "Valpha": "ILNVEQSPQSLHVQEGDSTNFTCSFPSSNFYALHWYRWETAKSPEALFVMTLNGDEKKKGRISATLNTKEGYSYLYIKGSQPEDSATYLCASADGANNLFFGTGTRLTVIP", "Vbeta": "SAVISQKPSRDICQRGTSLTIQCQVDSQVTMMFWYRQQPRQSLTLIATANQGSEATYESGFVIDKFPISRPNLTFSTLTVSNMSPEDSSIYLCSVGPSGTGPGYTFGSGTRLTVV"}, "B6": {"name": "TCR1 (TCR, V domains shown)", "Valpha": "AQKVTQAQTEISVVEKEDVTLDCVYETRDTTYYLFWYKQPPSGELVFLIRRNSFDEQNEISGRYSWNFQKSTSSFNFTITASQVVDSAVYFCALSEVTGAGSYQLTFGKGTKLSVIP", "Vbeta": "DGGITQSPKYLFRKEGQNVTLSCEQNLNHDAMYWYRQDPGQGLRLIYYSQIVNDFQKGDIAEGYSVSREKKESFPLTVTSAQKNPTAFYLCASSIGAGQHNSPLHFGNGTRLTVT"}, "B7": {"name": "TCR14 (TCR, V domains shown)", "Valpha": "AQKITQTQPGMFVQEKEAVTLDCTYDTSDPSYGLFWYKQPSSGEMIFLIYQGSYDQQNATEGRYSLNFQKARKSANLVISASQLGDSAMYFCAMRGMDSSYKLIFGSGTRLLVRP", "Vbeta": "DVKVTQSSRYLVKRTGEKVFLECVQDMDHENMFWYRQDPGLGLRLIYFSYDVKMKEKGDIPEGYSVSREKKERFSLILESASTNQTSMYLCATRTGQQAGSKDTDTQYFGPGTRLTVL"}, "B8": {"name": "TCR16 (TCR, V domains shown)", "Valpha": "DQQVKQNSPSLSVQEGRISILNCDYTNSMFDYFLWYKKYPAEGPTFLISISSIKDKNEDGRFTVFLNKSAKHLSLHIVPSQPGDSAVYFCAVNRDDKIIFGKGTRLHILP", "Vbeta": "DTGVSQDPRHKITKRGQNVTFRCDPISEHNRLYWYRQTLGQGPEFLTYFQNEAQLEKSRLLSDRFSAERPKGSFSTLEIQRTEQGDSAMYLCASSSELAGGINEQFFGPGTRLTVL"}, "B9": {"name": "TCR10 (TCR, V domains shown)", "Valpha": "GEDVEQSLFLSVREGDSSVINCTYTDSSSTYLYWYKQEPGAGLQLLTYIFSNMDMKQDQRLTVLLNKKDKHLSLRIADTQTGDSAIYFCAEMKDTDKLIFGTGTRLQVFP", "Vbeta": "DGGITQSPKYLFRKEGQNVTLSCEQNLNHDAMYWYRQDPGQGLRLIYYSQIVNDFQKGDIAEGYSVSREKKESFPLTVTSAQKNPTAFYLCASTQVGTGELFFGEGSRLTVL"}, "B10": {"name": "TCR12 (TCR, V domains shown)", "Valpha": "B9 Valpha with M92I, K93R, D96G, T102Q, R105T, F109K", "Vbeta": "DVKVTQSSRYLVKRTGEKVFLECVQDMDHENMFWYRQDPGLGLRLIYFSYDVKMKEKGDIPEGYSVSREKKERFSLILESASTNQTSMYLCASSRQGTDTQYFGPGTRLTVL"}, "B11": {"name": "TCR11 (TCR, V domains shown)", "Valpha": "B9 Valpha", "Vbeta": "not shown"}, "B12": {"name": "TCR13 (TCR, V domains shown)", "Valpha": "B9 Valpha with M92R, K93R", "Vbeta": "GAVVSQHPSWVICKSGTSVKIECRSLDFQATTMFWYRQFPKQSLMLMATSNEGSKATYEQGVEKDKFLINHASLTLSTLTVTSAHPEDSSFYICSAWGANTGELFFGEGSRLTVL"}, "B13": {"name": "TCR9 (TCR, V domains shown)", "Valpha": "GEDVEQSLFLSVREGDSSVINCTYTDSSSTYLYWYKQEPGAGLQLLTYIFSNMDMKQDQRLTVLLNKKDKHLSLRIADTQTGDSAIYFCAEIPGDSSYKLIFGSGTRLLVRP", "Vbeta": "not shown"}, "B14": {"name": "TCR8 (TCR, V domains shown)", "Valpha": "GEDVEQSLFLSVREGDSSVINCTYTDSSSTYLYWYKQEPGAGLQLLTYIFSNMDMKQDQRLTVLLNKKDKHLSLRIADTQTGDSAIYFCAESIRDTDKLIFGTGTRLQVFP", "Vbeta": "GAVVSQHPSRVICKSGTSVKIECRSLDFQATTMFWYRQFPKKSLMLMATSNEGSKATYEQGVEKDKFLINHASLTLSTLTVTSAHPEDSSFYICSARDTSGTTRNEQFFGPGTRLTVL"}, "B15": {"name": "TCR15 (TCR, V domains shown)", "Valpha": "B14 Valpha with E91D, S92F, I93L", "Vbeta": "GAVVSQHPSWVICKSGTSVKIECRSLDFQATTMFWYRQFPKQSLMLMATSNEGSKATYEQGVEKDKFLINHASLTLSTLTVTSAHPEDSSFYICSARDRTSTDTQYFGPGTRLTVL"}}, "note": "Changes are numbered by the printed parent chain."}
{"target": "T1, KRAS G12D peptide on HLA-A*11:01 (human)", "T1 peptide": "VVVGADGVGK", "assay": "multimer staining"}
{"binder": "B1", "binding result": "recognises"}
{"binder": "B2", "binding result": "recognises"}
{"binder": "B3", "binding result": "recognises"}
{"binder": "B4", "binding result": "recognises"}
{"binder": "B5", "binding result": "recognises"}
{"binder": "B6", "binding result": "recognises"}
{"target": "T2, KRAS G12V peptide on HLA-A*02:01 (human)", "T2 peptide": "KLVVVGAVGV", "assay": "multimer staining"}
{"binder": "B7", "binding result": "recognises"}
{"binder": "B8", "binding result": "recognises"}
{"binder": "B9", "binding result": "recognises"}
{"binder": "B10", "binding result": "recognises"}
{"binder": "B11", "binding result": "recognises"}
{"binder": "B12", "binding result": "recognises"}
{"binder": "B13", "binding result": "recognises"}
{"binder": "B14", "binding result": "recognises"}
{"binder": "B15", "binding result": "recognises"}
